From doi:10.1101/2021.09.05.459021 (bioRxiv, 2021)
Values joined by “and” are separate entries in the source; they are usually repeats but may differ in a detail not shown here. Identical values can stand only once. Blank lines part the entries; values can stand above or below the molecule they belong to.

Columns and labels:
[1] = biological target: EGFP fusion of KCNH1 (UniProt O95259); assay: single-molecule subunit counting
[2] = biological target: mTTYH3 ECD1-T4L-ECD2 (mouse | bacteriophage T4) (UniProt Q6P5F7); assay: cross-linking
[3] = biological target: the molecule itself; assay: SEC
[4] = biological target: the molecule itself; assay: single-molecule subunit counting
[5] = biological target: the molecule itself; assay: native gel or EMSA

stoichiometry N [1]: 4
Molecule: EGFP fusion of KCNH1 (from UniProt O95259 1-989) (natural protein)

stoichiometry N [2]: 4
Molecule: mTTYH3 ECD1-T4L-ECD2 (from UniProt Q6P5F7 107-209; Q6P5F7 260-386) (domain or fragment)

B1: mTTYH1-EGFP (C-terminal EGFP fusion of mouse TTYH1), expressed in HEK 293 cells (natural protein, UniProt Q9D3A9 1-450, looked up)
chain: MGAPPGYRPSAWVHLLHQLPRADFQLRPVPSGFAPRDQEYQQALLLVAALAGLGLGLSLIFIAVYLIRFCCCRPPEPHGAKSPPPGGGCVTWSCIAALLVGCAGIGIGFYGNSETSDGVSQLSSALLHANHTLSTIDDVVLETVERLGEAVKTELTTLEEVLSVRMELVAATRGARRQAEAAAQYLQGLAFWQGVSLSPVQVAEDVTFVEEYRWLAYVLLLLLVLLVCLFTLLGLAKQSKWLVVVMTAMSLLVLVLSWGSMGLEAATAVGLSDFCSNPDTYVLNLTQEETGLSSDILSYYFLCNQAVSNPFQQRLTLSQRALASIHSQLQGLEREAIPQFSAAQKPLLSLEETLNVTERSFHQLVALLHCRSLHKDYGSALRGLCEDALEGLLFLMLFSLLSAGALATTLCSLPRAWALFPPSDDYDDTDDDDPFNPQESKRFVQWQSSI
stoichiometry N [3]: 4 and 2

B2: mTTYH1-EGFP (C-terminal EGFP fusion of mouse TTYH1), expressed in Xenopus oocytes (natural protein, UniProt Q9D3A9 1-450, looked up)
chain: MGAPPGYRPSAWVHLLHQLPRADFQLRPVPSGFAPRDQEYQQALLLVAALAGLGLGLSLIFIAVYLIRFCCCRPPEPHGAKSPPPGGGCVTWSCIAALLVGCAGIGIGFYGNSETSDGVSQLSSALLHANHTLSTIDDVVLETVERLGEAVKTELTTLEEVLSVRMELVAATRGARRQAEAAAQYLQGLAFWQGVSLSPVQVAEDVTFVEEYRWLAYVLLLLLVLLVCLFTLLGLAKQSKWLVVVMTAMSLLVLVLSWGSMGLEAATAVGLSDFCSNPDTYVLNLTQEETGLSSDILSYYFLCNQAVSNPFQQRLTLSQRALASIHSQLQGLEREAIPQFSAAQKPLLSLEETLNVTERSFHQLVALLHCRSLHKDYGSALRGLCEDALEGLLFLMLFSLLSAGALATTLCSLPRAWALFPPSDDYDDTDDDDPFNPQESKRFVQWQSSI
stoichiometry N [4]: 4

B3: FLAG-tagged mouse TTYH1 (mTTYH1) (natural protein, UniProt Q9D3A9 1-450, looked up)
chain: MGAPPGYRPSAWVHLLHQLPRADFQLRPVPSGFAPRDQEYQQALLLVAALAGLGLGLSLIFIAVYLIRFCCCRPPEPHGAKSPPPGGGCVTWSCIAALLVGCAGIGIGFYGNSETSDGVSQLSSALLHANHTLSTIDDVVLETVERLGEAVKTELTTLEEVLSVRMELVAATRGARRQAEAAAQYLQGLAFWQGVSLSPVQVAEDVTFVEEYRWLAYVLLLLLVLLVCLFTLLGLAKQSKWLVVVMTAMSLLVLVLSWGSMGLEAATAVGLSDFCSNPDTYVLNLTQEETGLSSDILSYYFLCNQAVSNPFQQRLTLSQRALASIHSQLQGLEREAIPQFSAAQKPLLSLEETLNVTERSFHQLVALLHCRSLHKDYGSALRGLCEDALEGLLFLMLFSLLSAGALATTLCSLPRAWALFPPSDDYDDTDDDDPFNPQESKRFVQWQSSI
stoichiometry N [5]: 2 and 4

B4: mTTYH3-EGFP (C-terminal EGFP fusion of mouse TTYH3), expressed in HEK 293 cells (natural protein, UniProt Q6P5F7 1-524, looked up)
chain: MAGVSYAAPWWVSLLHRLPHFDLRWEATSSQFRPEDADYQQALLLLGATALACLALDLLFLLFYSFWLCCRRRKTDEHLDADCCCTAWCVIITTLVCSAGIAVGFYGNGETSDGIHRATYSLRHANRTVAGVQDRVWDTAAALNRTAEPNLQSLERQLAGRQEPLRAVQRLQTLLGTLLGYTAAIPFWRNPGVSLEVLAEQVDLYDWYRWLGYLGLLLLDVIICLLVLVGLIRSSKGILVGVCLLGVLALVISWGALGLELAVSVGSSDFCVDPDTFVTKMVEEHSVLSGDILQYYLACSPRATNPFQQKLSGSHKALVEMQDVVAELLRNVPREHPATKDPLLRVQEVLNGTEVNLQHLTALVDCRSLHLDYVQALTGFCYDGVEGLIYLALFSFVTALMFSSIVCSIPHTWQQKRGPDDDGEEETAPGPRQAHDSLYRVHMPSLYSCGSSYGSEASIPAAAHTVSNAPVTEYMSQNANFQNPRCENTPLIGRESPPPSYTSSMRAKYLATSQPRPDSSGSGH
ratio of tetramers to dimers [3]: ~1.5 | stoichiometry N [3]: 4 and 2

B5: mTTYH3-EGFP (C-terminal EGFP fusion of mouse TTYH3), expressed in Xenopus oocytes (natural protein, UniProt Q6P5F7 1-524, looked up)
chain: MAGVSYAAPWWVSLLHRLPHFDLRWEATSSQFRPEDADYQQALLLLGATALACLALDLLFLLFYSFWLCCRRRKTDEHLDADCCCTAWCVIITTLVCSAGIAVGFYGNGETSDGIHRATYSLRHANRTVAGVQDRVWDTAAALNRTAEPNLQSLERQLAGRQEPLRAVQRLQTLLGTLLGYTAAIPFWRNPGVSLEVLAEQVDLYDWYRWLGYLGLLLLDVIICLLVLVGLIRSSKGILVGVCLLGVLALVISWGALGLELAVSVGSSDFCVDPDTFVTKMVEEHSVLSGDILQYYLACSPRATNPFQQKLSGSHKALVEMQDVVAELLRNVPREHPATKDPLLRVQEVLNGTEVNLQHLTALVDCRSLHLDYVQALTGFCYDGVEGLIYLALFSFVTALMFSSIVCSIPHTWQQKRGPDDDGEEETAPGPRQAHDSLYRVHMPSLYSCGSSYGSEASIPAAAHTVSNAPVTEYMSQNANFQNPRCENTPLIGRESPPPSYTSSMRAKYLATSQPRPDSSGSGH
stoichiometry N [4]: 4

B6: FLAG-tagged mouse TTYH3 (mTTYH3) (natural protein, UniProt Q6P5F7 1-524, looked up)
chain: MAGVSYAAPWWVSLLHRLPHFDLRWEATSSQFRPEDADYQQALLLLGATALACLALDLLFLLFYSFWLCCRRRKTDEHLDADCCCTAWCVIITTLVCSAGIAVGFYGNGETSDGIHRATYSLRHANRTVAGVQDRVWDTAAALNRTAEPNLQSLERQLAGRQEPLRAVQRLQTLLGTLLGYTAAIPFWRNPGVSLEVLAEQVDLYDWYRWLGYLGLLLLDVIICLLVLVGLIRSSKGILVGVCLLGVLALVISWGALGLELAVSVGSSDFCVDPDTFVTKMVEEHSVLSGDILQYYLACSPRATNPFQQKLSGSHKALVEMQDVVAELLRNVPREHPATKDPLLRVQEVLNGTEVNLQHLTALVDCRSLHLDYVQALTGFCYDGVEGLIYLALFSFVTALMFSSIVCSIPHTWQQKRGPDDDGEEETAPGPRQAHDSLYRVHMPSLYSCGSSYGSEASIPAAAHTVSNAPVTEYMSQNANFQNPRCENTPLIGRESPPPSYTSSMRAKYLATSQPRPDSSGSGH
stoichiometry N [5]: 2 and 4
